Here are results for 8 sequences from a protein production outcome set (Wang et al. 2014).

This data set is described as follows: label from the status in PepcDB records.

Regarding “MASQIDQYAVFGNPINHSKSPFIHTLFARQTQQSMIYTAQCVPVDGFTEAAKHFFAQGGRGCNVTVPFKEEAYRFADRLTERARLAGAVNTLKKLDDGEILGDNTDGEGLVQDLLAQQVLLKGATILLIGAGGAARGVLKPLLDQQPASITVTNRTFAKAEQLAELVAAYGEVKAQAFEQLKQSYDVIINSTSASLDGELPAIDPVIFSSRSVCYDMMYGKGYTVFNQWARQHGCAQAIDGLGMLVGQAAESFMLWRGLRPGTKQILRELRKNLEGAL”, the protein production entry is on record as “not failed”. The entry for “MASQTNQTVVDTKKIETENPPKPQVPASSCRKRVKDDNATFFANLKDHMDEFIHASMDEHKTCFKNTMDKIFGSFSKAEAVAEKQIEAKEVVEIHSPLQTAVTK” is “not failed”; for “MASRGRRPEHGGPPELFYDETEARKYVRNSRMIDIQTRMAGRALELLYLPENKPCYLLDIGCGTGLSGSYLSDEGHYWVGLDISPAMLDEAVDREIEGDLLLGDMGQGIPFKPGTFDGCISISAVQWLCNANKKSENPAKRLYCFFASLFSVLVRGSRAVLQLYPENSEQLELITTQATKAGFSGGMVVDYPNSAKAKKFYLCLFSGPSTFIPEGLSENQDEVEPRESVFTNERFPLRMSRRGMVRKSRAWVLEKKERHRRQGREVRPDTQYTGRKRKPRF” it is “failed”; for “MASSALCFFLMSDLFEPPPDFPARSALRRDCTACGACCSAPDIHALGKPLGVPCRFLGAENTQGACLCGIYLERPAVCRSYAPDWVCGEVAPLPTLEARIRRFLEIYGLDPVTGLEHHHHHH” it is “failed”. In the case of “MASSDVLRQPDKNARPLALSGHVGFDSLPDQLVNKSTSQGFCFNILCIGETGIGKSTLMDTLFNTNFENFESSHFEPKVKLRAQTYDLQESNVRLKLTVVNTVGFGDQMNKQESYQHIVDYIDTQFESYLQEELKIKRSLHNYHDSRIHACLYFIAPSGHSLKSLDLVTMKKLDSKVNIIPVIAKADTISKSELHKFKIKIMSELVSNGVQIYQFPIDDETVAKINTAMNGHLPFAVVGSTEEVNIGNKMVKARQYPWGVVQVENENHCDFVKLREMLICVNMEDLREQTHTRHYELYRRCKLEEMGFKDTDPECKPVSLQQTYEAKRQEFLGELQRREEEMRQTFVQRVKEKEAELKDAERELQGKFEQLKRLHADEKSKLEEKRRSLEEEMSVFSKRKAATELLQAQSFNTSTNNKKDKDRKNSGFM” it was “not failed”; in that of “MASSEGLASVDPWSFRQNFNIDSWLLSDSFSHDSDILAKALHRSISTSTESSPLSPSSFFDSSTAAVDFSPPQTLSNVSFGSDPEIPAASALGLGKRKRGPGVSGGKQTKRRSRVSNKKSQTTFITADAANFRQMVQQVTGAKFLGSSNSIFAPIVKPEPHRLASRLPPSCGNLDRSSAVPTLDTSSFLSNHHQENIITDLGAPTGSFHHQSSAGTTTANVGGGSSAVELDSYPSFPTLESWKVM”, “failed”. The entry for “MASSLTKDSVTPGTPGTEKTFFGHPRGLATLFMTEMWERFSYYGMRALLPLYLVAPGGLGLGAGTATAIYSVYLSLVYLLTMPGGWFGDRVWGPRKTVAIAGGVIMLGHLTLALPSSGTFYAGLGLVAIGSGLLKANISTMVGQLYDGPDDPRRDGGFTVFYMGINLGAFAAPLTIGTIGENVNWHLGFALAAVGMGLGVLQFLIGSRHLAPHSSAVPKPLSVEEKTSTLRKAAFWAALAVVFYAIVGFSGHYTLNWILVPLTLLGVIIPVLVLTNIKRDKSLDRAEQSKMSAYIWFFVAAAVFWMIYDQGGSTLSLFADSSADNSVFGWSFPVSWYQSVNPVIIMALAPVFATVWLALNRRGKEPSTVVKFCGGLVLVGASFFLFLAPLGIAEGGHKAAAMWLVAIYFVQTCGELMLSPVGLSVTTKMAPVKYASQMMGVWFLAVTAGDATTGLLSIAGVDLNKTGIVAAEATLAVVAGVAIWMYRKRVKELMGDVR” is “failed”; for “MASSTLFKLNSQTFKALNPSPPSLSPPNSRIFHLHFSKSLSQQHSKLNHKSTTTRLFAPLCSSLPSPSSSSPPLSKEEAINQAKTCLLSCLIKPLNNPKLASPKLRKLKQPRFRLEIPILDDDSPSSLSQLAFSIFHDLPISRRGSNVKLLFLWPNPSFIDPAVKAFRSDSIHHIAMSPVSDSLKTALRSADVAIFMAPEKSQLEDVKTASEAFSTKPVVMINPRWLFEEEKSFGDGFIGSFEVIYAFTGLEVRGVFSKRKGVIFKCVRDGVVSGERWNVLVEEEEGNGTLKVVSQFNSRPSIEEVELVLYNLMAMNSPITKSAKFLSDLVSNITGKK” it is “failed”.
